# In patent publication US20220153852A1 (IBIO, published 2022):
# Where a chain is given by its changes, count along the chain named.
# T1: CD25 on CD25-expressing human cells (SUDHL-1, SR786, regulatory T cells) (human, UniProt P01589 22-272)
# T1 sequence (looked up): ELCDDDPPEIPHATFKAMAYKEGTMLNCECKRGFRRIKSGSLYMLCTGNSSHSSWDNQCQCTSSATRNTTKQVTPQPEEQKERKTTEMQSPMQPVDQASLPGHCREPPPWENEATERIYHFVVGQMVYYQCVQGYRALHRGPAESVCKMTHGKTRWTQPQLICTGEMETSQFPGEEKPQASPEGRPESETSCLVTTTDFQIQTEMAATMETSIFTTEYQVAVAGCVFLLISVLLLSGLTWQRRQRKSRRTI
# T2: human CD25 (ELISA antigen) (human, UniProt P01589 22-213, limits assumed)
# T2 construct: The ELISA protocol is described only for cyno CD25; the human antigen's construct is not described
# T2 sequence (looked up): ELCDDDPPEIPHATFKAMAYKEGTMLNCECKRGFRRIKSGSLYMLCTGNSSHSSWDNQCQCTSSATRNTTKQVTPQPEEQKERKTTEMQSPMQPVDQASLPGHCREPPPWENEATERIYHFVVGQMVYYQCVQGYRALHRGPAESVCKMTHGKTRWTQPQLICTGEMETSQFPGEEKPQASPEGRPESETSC
# T3: recombinant cynomolgus monkey (cyno) CD25 (cynomolgus monkey, UniProt H6WS54 22-213)
# T3 sequence: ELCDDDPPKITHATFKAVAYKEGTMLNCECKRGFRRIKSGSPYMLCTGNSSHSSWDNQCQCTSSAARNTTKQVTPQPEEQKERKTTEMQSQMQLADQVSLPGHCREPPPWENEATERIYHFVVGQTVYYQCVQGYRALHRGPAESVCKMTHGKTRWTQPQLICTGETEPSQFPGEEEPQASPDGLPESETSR
# B1: D11 (original or parental) (antibody, V domains shown)
# VH: QIQLQQPGAELVRPGVSLKISCKGSGYTFTDYAMHWVRQSHAKSLEWIGVISTYSGDAIYNQKFKGKATMTVDKSSSTAYLELARLTSDDSAIYYCARGVTFDYWGQGTTVTVSS
# VL: DIQMTQTTSSLSASLGDRVTITCRASQDISNYLEWYQQKQGKSPQLLVYNAKTLAEGVPSRFSGSGSGTQFSLKINSLQPEDFGSYYCQHHYDTPYTFGGGTKLEIK
# notes: also called parental D11; original D11
# B2: hD11-H3-L2 (hD11-H3h-L2) (antibody, V domains shown)
# VH: QVQLVQSGAEVKKPGASLKISCKGSGYTFTDYAMHWVRQAPGQGLEWIGVISTYSGDAIYAQKFQGRATMTVDTSTSTAYLELSSLRSEDTAVYYCARGVTFDYWGQGTTVTVSS
# VL: DIQMTQSPSSLSASVGDRVTITCRASQDISNYLEWYQQKPGKAPKLLVYNAKTLAEGVPSRFSGSGSGTDFTLTISSLQPEDFGTYYCQHHYDTPYTFGQGTKLEIK
# B3: hD11-H2-L1 (antibody, V domains shown)
# VH: B2 VH with L18V, I20V, I48M, A68V, L81M
# VL: B2 VL with V48I, G84A
# B4: hD11-H1-L2 (antibody, V domains shown)
# VH: B2 VH with L18V, I20V, G24A, I48M, A68V, V72R, A79V, L81M
# VL: B2 VL
# notes: Humanized variant of D11 (parental clone carries human IgG1)
# B5: hD11-H3b-L2 (antibody, V domains shown)
# VH: B2 VH with T74K
# VL: B2 VL
# B6: hD11-H2b-L2 (antibody, V domains shown)
# VH: B2 VH with L18V, I20V, I48M, A68V, T74K, L81M
# VL: B2 VL
# B7: hD11-H2b-L1 (antibody, V domains shown)
# VH: B2 VH with L18V, I20V, I48M, A68V, T74K, L81M
# VL: B2 VL with V48I, G84A
# B8: hD11-H2-L2 (antibody, V domains shown)
# VH: B2 VH with L18V, I20V, I48M, A68V, L81M
# VL: B2 VL
# B9: hD11-H3b-L1 (antibody, V domains shown)
# VH: B2 VH with T74K
# VL: B2 VL with V48I, G84A
# B10: hD11-H3-L1 (hD11-H3h-L1) (antibody, V domains shown)
# VH: B2 VH
# VL: B2 VL with V48I, G84A
# B11: hD11-H1-L1 (antibody, V domains shown)
# VH: B2 VH with L18V, I20V, G24A, I48M, A68V, V72R, A79V, L81M
# VL: B2 VL with V48I, G84A
# B12: 7G7B6 (antibody, V domains shown)
# VH: EVQLVESGGDLVQPRGSLKLSCAASGFTFSSYGMSWVRQTPDKRLELVATINGYGDTTYYPDSVKGRFTISRDNAKNTLYLQMSSLKSEDTAMYFCARDRDYGNSYYYALDYWGQGTSVTVSS
# VL: QIVLSQSPAILSASPGERVTMTCRASSSVSFMHWLQQKPGSSPKPWIYATSNLASGVSARFSGSGSGTSYSLTITRVEAEDAATYYCQQWSSNPPAFGGGTKLEIK
# Target: T1, CD25 on CD25-expressing human cells …
# Assay: cell-based or functional assay
row,Binder,Treg ADCC EC50 [µg/mL]
1,B1,0.0135
2,B2,0.0048
3,B3,0.0178
4,B4,0.0467
5,B5,0.0077
6,B6,0.0145
7,B7,0.0089
8,B8,0.0133
9,B9,0.0317
10,B10,0.0683
11,B11,0.0206
12,B12,0.0194

# Target: T2, human CD25 (ELISA antigen)
# Assay: ELISA on human CD25, OD450, curve fit
row,Binder,Top
1,B1,3.12
2,B4,3.1
3,B12,3.12

# Target: T3, recombinant cynomolgus monkey (cyno) …
# Assay: ELISA on coated cyno CD25, OD450, curve fit
# Protocol: (§1) To test for binding to recombinant cynomolgus monkey (cyno) CD25, microtiter plates were coated with 80 ul of 1 ug/ml Cyno CD25 in 50 mM sodium carbonate pH 9.6) at 4° C. overnight. The next day, remove the protein from the wells and block with 200 ul PBS/0.1% BSA/0.05% tween20. The plate was incubated for 1 hour at room temperature. The antibodies starting at 25 nM and 3 fold serially were diluted in PBT buffer and added to the plate for incubation at RT for 1 hour. The plate was then washed and then 1:2500 dilution of HRP conjugate anti-Fab antibody was added. The plate was washed 5-10 times with PBS/tween20 to remove non-specific binders. TMB perxidase substrate and peroxidase solution were added and incubated for the time needed to develop with 80 uL of ELISA stop solution added at the end. OD measurements were then taken at […] using a plate reader (SpectraMax iD3 Plate Reader, Molecular Devices).
# (§2) The ratio is indicative of a preference in binding to either cyno or human CD25.
row,Binder,Top
1,B1,3.01
2,B4,3.04
3,B12,2.96

# Target: T3, recombinant cynomolgus monkey (cyno) …
# Assay: ratio of the ELISA IC50 on cyno CD25 to that on human CD25
# Protocol: as §1, §2
row,Binder,Cyno/Human
1,B1,1.3
2,B4,42.4
3,B12,1.8
